Results taken from patent US20250375541A1, “RADIOPHARMACEUTICAL COMPOSITION AND METHODS” (Ariceum Therapeutics GmbH, priority 2024, published 2025).

Test: Stability of the radiopharmaceutical composition: radiochemical purity by radio-TLC over time from EoP
Type: physicochemical
Details: Tris pH 8.0, sodium ascorbate formulation
Procedure: Upon reaction completion, the mixture was directly cooled down with formulation solution (123.7 mg/mL sodium ascorbate buffer) to yield a 20 mL [^225Ac]Ac-DOTA-satoreotide stock solution. Reaction completion is referred to as the “end-of-production” (EoP) time, or t=0 h as used in the following results.
This was determined by radio TLC as set out below.
Radio-TLC was performed at T=0 h and at various time points subsequent to the radiolabeling procedure. To run the procedure, 5 μL of reaction solution was spotted on a TLC plate (RP-C18 silica glass plates) at about 1.5 cm from bottom edge. The TLC plate was developed using a mobile phase mixture of ammonium acetate 25% and methanol (40:60 Vol.-%) with an elution length of about 5-6 cm. The TLC plate was dried and measured on a phosphor imager (Perkin Elmer Cyclone Plus Storage Phosphor system) once secular equilibrium of ^225Ac and ^221Fr/^213Bi was reached (>6 hours after development). Free Ac(III) stays at the origin while ^225Ac-DOTA-Satoreotide travels with the eluent front.
In FIG. 1, “T=Xh, read Yh” means that a sample was taken and developed at T=Xh but analyzed Yh after development of the TLC plate, to account for equilibrium of the daughters.

Substance [^225Ac]Ac-DOTA-satoreotide has a radiochemical purity (after 168 hours (from EoP) at ambient temperatures) of 95.8% and a radiochemical purity (at 96 h from EoP) of 98.9%.
